Reference: US20180371083A1 (Merck Sharp & Dohme, published 2018)

T1: human TIGIT expressed on cells (CHO-K1 transfectants; Jurkat over-expressing human TIGIT) (human, UniProt Q495A1 25-244)
T1 construct: also called hTIGIT; human TIGIT-CHO-K1 cells
T1 sequence: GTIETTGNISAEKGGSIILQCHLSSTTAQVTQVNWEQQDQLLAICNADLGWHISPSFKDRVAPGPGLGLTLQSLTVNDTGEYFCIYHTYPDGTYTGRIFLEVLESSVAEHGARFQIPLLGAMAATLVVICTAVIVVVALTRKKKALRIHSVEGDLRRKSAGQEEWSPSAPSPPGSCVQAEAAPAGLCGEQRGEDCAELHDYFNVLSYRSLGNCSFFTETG

T2: human TIGIT-His protein (extracellular domain of human TIGIT fused to His tag) (human, UniProt Q495A1 25-141)
T2 construct: also called hTIGIT-His; hTIGIT-HIS
T2 sequence: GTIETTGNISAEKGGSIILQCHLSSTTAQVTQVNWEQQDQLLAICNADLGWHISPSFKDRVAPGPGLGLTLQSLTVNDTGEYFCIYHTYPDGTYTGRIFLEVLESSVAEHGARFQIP


Columns and labels:
[1] = target: T1, human TIGIT expressed on cells (CHO-K1 …); assay: cell-based ELISA blocking assay: binding of human CD155-huFc to CHO-hTIGIT cells in the presence of titrated antibody
[2] = target: T1, human TIGIT expressed on cells (CHO-K1 …); assay: cell-based or functional assay
[3] = target: T2, human TIGIT-His protein (extracellular …); assay: SPR, Biacore T200; antibody captured on anti-mouse IgG, human TIGIT-His as analyte; 1:1 Langmuir fit
Description: The kinetic binding activity of anti-human TIGIT antibodies 14D7 and 26B10 (made as described in Example 1) and of commercial antibody MBSA43 was measured by surface plasmon resonance using a Biacore T200 system (Biacore, GE Healthcare, Piscataway, N.J.). […] Mouse anti-human TIGIT clones, 14D7, 26B10 and MBSA43, were each injected over the immobilized anti-mouse surfaces at 1 μg/mL for a capture level of 40 RU. HBS-EP+ buffer (BR-1006-69) was used as the running buffer with a flow rate of 30 μL/min. Varying concentrations of human TIGIT-His protein, ranging from 0.29 nM to 40 nM, at a flow rate of 45 μL/min were injected over the antibody surfaces. Following each Mouse anti-human TIGIT injection cycle, the Series S CM5 chip surface was regenerated using one three-minute injection of 10 mM Glycine pH 1.7 at a flow rate of 10 μL/min.
Background subtraction binding sensorgrams were used for analyzing the rate constant of association (kₐ) and dissociation (kd), and the equilibrium dissociation constant KD. The resulting data sets were fitted with a 1:1 Langmuir Binding Model using the Biacore T200 evaluation software (version 2.0). Table 3 summarizes the affinities for the anti-human TIGIT antibodies to human TIGIT-His protein.

[4] = target: T3, cynomolgous/rhesus TIGIT expressed on CHO-K1 cells (cynomolgous monkey / rhesus monkey); assay: cell-based ELISA on CHO cells expressing rhesus TIGIT (panel 'Binding to CHO-rhesus TIGIT Cells')
T3 construct: also called cyno/rhesus TIGIT; cyno/rhesus TIGIT-CHOK1 cells

[5] = target: T1, human TIGIT expressed on cells (CHO-K1 …); assay: cell-based ELISA on CHO cells expressing human TIGIT (panel 'Binding to CHO-human TIGIT Cells')

T3 sequence (chain, as listed by the source): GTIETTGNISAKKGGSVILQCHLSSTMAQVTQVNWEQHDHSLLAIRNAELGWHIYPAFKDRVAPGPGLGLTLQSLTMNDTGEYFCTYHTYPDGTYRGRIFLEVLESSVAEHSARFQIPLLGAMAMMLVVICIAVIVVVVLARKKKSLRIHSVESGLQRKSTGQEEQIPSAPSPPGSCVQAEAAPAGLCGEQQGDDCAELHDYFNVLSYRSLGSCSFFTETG

| IC50 (read off the curve) [1] [ng/mL] | EC50, rescue of IL-2 in hTIGIT-Jurkat / THP-1 co-culture with CD155-Fc or CD112-Fc [2] [ng/mL] | Kd [3] [nM] | EC50 (read off the curve) [4] [ng/mL] | EC50 (read off the curve) [5] [ng/mL] | Binder |
| --- | --- | --- | --- | --- | --- |
| ~80000 | 170 | 0.0046 | ~0.06 | ~0.06 | mouse anti-human TIGIT antibody 14D7 (clone MEB125.14D7) (antibody, V domains shown, Mouse IgG1/kappa; also called 14D7 (mIgG1/K); MEB125.14D7.C1.C1) VH: EVKLEESGGGLVQPGGSMKLSCVASGFTFSGAWMDWVRQSPEKGLEWVAEIRTKVNNHATNYGESVKGRFTISRDDSKSSVYLQMNNLRAEDSGIYYCRGALYDGFYFDYWGQGTTLTVSS VL: QIVLTQSPAIMSASPGEKVNLTCSASSSVSSGYLYWYQQKPGSSPKLWIYGTSTLASGVPARFSGSGSGTSYSLTISNMEAEDAASYFCHQWSSFPYTFGGGTKLEMK |
| ~50000 | 190 | 0.14 | ~0.04 | ~0.05 | mouse anti-human TIGIT antibody 26B10 (clone MEB125.26B10) (antibody, V domains shown, Mouse IgG1/kappa; also called 26B10 (mIgG1/K)) VH: EVQLQQSGPELVKPGASVKISCKTSGYTFTEFTMHWVKQSHGKSLEWIGGLKPDNGGISYNQKFKGRATLAVDKSSNTAYMELRSLTSEDSAVYYCARGAYYRYDADYWGQGTTLTVSS VL: DIVLTQSHKFMSTSVGDRVSITCKASQDVKTAVAWYQQKSGQSPKLLIYSASYRNTGVPDRFTGSGSGTDFTFTIDSVQAEDLAVYFCQQHYSTPFTFGTGTKLELK |
